Assay results published in patent US20230416388A1 (Bristol-Myers Squibb, published 2023).

Tests used:
[1] = biological target: mouse GITR (on activated mouse T cells) (mouse) (UniProt O35714); experiment: in vitro binding on activated mouse CD4+ T cells
[2] = biological target: mouse GITR (on activated mouse T cells) (mouse) (UniProt O35714); experiment: in vitro binding on activated mouse CD8+ T cells
[3] = biological target: T1, human GITR (on activated human T cells) (human, UniProt Q9Y5U5 26-241); experiment: in vitro binding on activated human CD4+ T cells
T1 construct: also called glucocorticoid-inducible TNF receptor; TNFRSF18
T1 sequence: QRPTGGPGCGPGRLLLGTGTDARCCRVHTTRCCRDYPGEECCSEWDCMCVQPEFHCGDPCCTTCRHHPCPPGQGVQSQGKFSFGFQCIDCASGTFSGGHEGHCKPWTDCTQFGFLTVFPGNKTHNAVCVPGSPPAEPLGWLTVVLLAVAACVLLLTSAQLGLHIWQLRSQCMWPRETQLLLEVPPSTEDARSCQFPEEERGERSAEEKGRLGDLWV

[4] = biological target: T1, human GITR (on activated human T cells); experiment: in vitro binding on activated human CD8+ T cells

Chain of mouse GITR (on activated mouse T cells) (mouse) (O35714 20-228): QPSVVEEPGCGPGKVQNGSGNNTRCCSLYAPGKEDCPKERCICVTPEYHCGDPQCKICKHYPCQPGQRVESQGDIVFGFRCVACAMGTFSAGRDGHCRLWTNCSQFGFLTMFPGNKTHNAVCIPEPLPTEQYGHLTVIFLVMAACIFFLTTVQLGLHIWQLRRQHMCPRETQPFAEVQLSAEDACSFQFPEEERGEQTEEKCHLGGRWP

DTA1-mIgG2a (antibody) gave an EC50 [1] of 0.14 nM and an EC50 [2] of 0.17 nM.

DTA1-mIgG2b (antibody) showed an EC50 [1] of 0.33 nM and an EC50 [2] of 0.33 nM.

B1: 28F3.IgG1 (antibody, V domains shown)
VH: QVQLVESGGGVVQPGRSLRLSCAASGFTFSSYGMHWVRQAPGKGLEWVAVIWYEGSNKYYADSVKGRFTISRDNSKNTLYLQMNSLRAEDTAVYYCARGGSMVRGDYYYGMDVWGQGTTVTVSS
VL: AIQLTQSPSSLSASVGDRVTITCRASQGISSALAWYQQKPGKAPKLLIYDASSLESGVPSRFSGSGSGTDFTLTISSLQPEDFATYYCQQFNSYPYTFGQGTKLEIKR
notes: Fully human IgG1 agonist antibody to GITR; also called GITR Ab; anti-GITR agonist Ab 28F3.IgG1
Work on B1 yielded an EC50 [3] of 0.37 nM and an EC50 [4] of 0.44 nM.
